Source: paper PMC12669776

Columns and labels:
Assay in all cases: EMSA
[1] = test system: PRC2-AEBP2L mt1A2A-JARID2 E37A;E38A;E39A;E40A;E41A;E42A;E43A;E44A;E45A;E46A;E47A;E48A;E95A;D96A;E97A;D98A;E99A;E100A;E101A;D102A;D103A;E104A;E105A;E106A;E107A;D108A;E109A (Homo sapiens), Q6ZN18-2+Q92833+Q15910-2+Q15022+O75530+Q09028; settings: 2.5 mM Mg2+, 100 mM NaCl; CpG24 EMSA/FA: 50 mM Tris pH 7.5, 100 mM KCl (FA 25/50/100), 0.05% NP40, 0.1 mg/ml BSA, 2 mM 2-ME, 30 C; CpG46 FA: 20 mM Tris pH 8.0, 100 mM NaCl, 0.1 mM …
[2] = test system: PRC2-AEBP2L(TEV)-JARID2 cleaved with TEV (Homo sapiens); settings: with TEV; Hill 2.7 ± 0.4; CpG24 EMSA/FA: 50 mM Tris pH 7.5, 100 mM KCl (FA 25/50/100), 0.05% NP40, 0.1 mg/ml BSA, 2 mM 2-ME, 30 C; CpG46 FA: 20 mM Tris pH 8.0, 100 mM NaCl, 0.1 mM …
[3] = test system: PRC2-AEBP2L(TEV)-JARID2, uncleaved (Homo sapiens); settings: no TEV; Hill 2.4 ± 0.2; CpG24 EMSA/FA: 50 mM Tris pH 7.5, 100 mM KCl (FA 25/50/100), 0.05% NP40, 0.1 mg/ml BSA, 2 mM 2-ME, 30 C; CpG46 FA: 20 mM Tris pH 8.0, 100 mM NaCl, 0.1 mM …
[4] = test system: PRC2-AEBP2L-JARID2 wild-type (Homo sapiens), Q6ZN18-2+Q92833+Q15910-2+Q15022+O75530+Q09028; settings: 2.5 mM Mg2+, 100 mM NaCl; CpG24 EMSA/FA: 50 mM Tris pH 7.5, 100 mM KCl (FA 25/50/100), 0.05% NP40, 0.1 mg/ml BSA, 2 mM 2-ME, 30 C; CpG46 FA: 20 mM Tris pH 8.0, 100 mM NaCl, 0.1 mM …

For NCP182, the Kd [1] was 15.6 nM, the Kd [2] was 18.7 nM and the Kd [3] was 24.8 nM. It also gave a Kd [4] of 33 nM.
